Target: T1, Macaca fascicularis Urotensin II receptor (Macaca mulatta, UniProt Q8HYC3)
T1 construct: expressed in transfected cells
T1 sequence (Q8HYC3 1-389): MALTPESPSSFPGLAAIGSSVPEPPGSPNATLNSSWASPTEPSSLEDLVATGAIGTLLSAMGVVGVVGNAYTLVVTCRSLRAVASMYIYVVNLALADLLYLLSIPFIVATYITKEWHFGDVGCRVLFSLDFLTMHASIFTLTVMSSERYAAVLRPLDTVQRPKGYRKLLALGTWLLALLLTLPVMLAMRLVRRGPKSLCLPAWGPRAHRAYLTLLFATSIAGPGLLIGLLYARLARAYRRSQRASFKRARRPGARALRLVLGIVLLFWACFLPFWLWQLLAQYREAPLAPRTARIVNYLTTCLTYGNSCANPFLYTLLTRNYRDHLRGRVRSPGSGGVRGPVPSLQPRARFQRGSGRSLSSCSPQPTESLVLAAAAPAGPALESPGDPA
Assay: Radioligand binding with Scatchard plot analysis on a stable HEK 293 cell line transfected with the Urotensin II receptor
Settings: radiolabeled ligand, single set of binding sites, transfected HEK 293 cells
Excerpt: 1. A stable cell line was developed from HEK 293 cells transfected with mammalian pCDN vector of the Macaca fascicularis Urotensin II receptor.

B1: Macaca fascicularis Urotensin II: Macaca fascicularis Urotensin II polypeptide of the invention (SEQ ID NO:2, 125 amino acids), ligand of a G-protein coupled receptor (protein)
chain: MYKLASCCLLFIGFLNPLFSLPLLDSGEVSLQLSAPHEDAPLTSEELERASLLQILPEMLLGAERGDSLRKADSSTNIFNPRGNLRKFQDFSGQDPDILLSHLLARIRKPYKKRETPDCFWKYCV
modifications: MACACA FASCICULARIS
Kd: 0.214 ± 0.065 nM
